Target: NP binding epitope peptide of human Influenza B, residues 31-43 of Nucleoprotein (…) (Influenza B virus (strain B/Lee/1940))
Assay: ELISA on overlapping peptides of NP (strain B/Lee/1940)

Row | Substance | OD492 nm
1 | Acris mAb 3IF18-InB12, clone InB12 (murine anti-Influenza B nucleoprotein monoclonal antibody) | > 0.4 OD492 nm
2 | GenWay mAb GWB-T00595, clone B265M (murine anti-Influenza B nucleoprotein monoclonal antibody) | > 0.4 OD492 nm

— patent publication US20210247395A1
